How the values were obtained:
[1] = 14C assay: 14CO2 capture from [14C]-carboxyl-labeled dicamba with purified protein; assay type: biochemical
[2] = GC/MS detection of 2,5-dichloro anisole (2,5-DCA), toluene trapping or head-space; assay type: biochemical; details: purified protein, dicamba, toluene capturing
Protocol: Alternatively, dicamba decarboxylase activity can be monitored by measuring decarboxylation products other than CO2 using product detection methods. The decarboxylation product of dicamba, 2,5-dichloro anisole or 2,5-DCA (FIG. 1C), is a volatile compound with a flash point of 21° C. To capture this volatile compound for detection, 140 ul of toluene solution is added on top of 1 ml reaction mixture to form a trapping layer in a 1.5 ml eppendorf tube. […] The reaction is kept still at room temperature overnight before being vortex mixed and centrifuged at 14,000 rpm for 15 minutes. The top toluene phase is carefully removed using a micropipette and transferred into a 12×32 mm polypropylene vial (Vial 11 mm) from MicroLiter Analytical Supplies, Inc. (catalog number 11-5300-100). The vial is sealed with Crimp seal (11 mm with FEP/Nat Rubber) from MicroLiter Analytical Supplies, Inc. (catalog number 11-0020A) using a E-Z Crimper™ 11 mm from Wheaton Inc. 1 ul of the toluene mixture is taken from the sealed vials and injected in splitless mode into a GC/MS system for sample analysis (Agilent GC/MS system with a 6890A GC, a 5973N MSD and a CTC CombiPAL auto-sampler or with a 7890A GC, a 5975C MSD and an Agilent GC Sampler 80 auto-sampler). The GC parameters are: Agilent DB-5MS column (30 m length, 0.25 mm diameter, 0.25 um film) or equivalent; The GC inlet temperature, 250° C.; Carry gas, helium in constant flow mode (1.2 mL/min); The GC oven temperature program, initial temperature at 70° C. for 1 min, ramping to 200° C. at 15° C./min, and then ramping to 250° C. at 30° C./min. MS data acquisition is done in SIM (selected ion monitoring) mode, monitoring the positive ion at M/Z 176 for the molecular ion of […]. The solvent delay for MS acquisition is set at 4 min. Another method for detection of 2,5-DCA is a head-space GC/MS method. Briefly, reaction mixtures in 500 ul reaction volume are prepared in 1.5 ml 12×32 mm glass vials (Microliter Analytical Supplies, Cat#11-1200) for head space analysis. Glass vials are sealed with magnetic cap from MicroLiter Analytical Supplies, Inc. (catalog number 11-0030AT) using a E-Z Crimper™ 11 mm from Wheaton Industries Inc. The reaction is carried out at room temperature for various amount of time and stopped by heating at 95° C. for 5 min. The reaction vial is transferred to a agitator for incubation at 80° C. for 5 min at 500 rpm. With a syringe preheated at 80° C., 1000 uL of head space is injected with sample fill speed at 100 uL/sec. GC/MS parameters for headspace analysis are the same as for liquid sample analysis.

[3] = LC-MS/MS detection of 4-chloro-3-methoxy phenol; assay type: biochemical; details: purified protein, dicamba
[4] = GC/MS detection of 2,5-dichloro phenol (2,5-DCP); kinetic determination; assay type: biochemical; details: purified protein, dicamba
[5] = Dicamba decarboxylation activity of computationally designed protein variants and parents (Tables 4, 5); details: for dicamba decarboxylase activity (statement in the description): native proteins and designed variants, assay not specified
[6] = 14C assay: 14CO2 capture from [14C]-carboxyl-labeled dicamba with IPTG-induced recombinant E. coli cells; details: for Enzymatic Detection level: dicamba decarboxylation activity
[7] = Enzyme kinetic characterization (kcat, KM, kcat/KM) of dicamba decarboxylase variants (Table 9); details: FIG. 6

Molecule | CO2 product detected [1] | 2,5-DCA product detected [2] | 4-chloro-3-methoxy phenol product detected [3] | 2,5-DCP product detected [4] | dicamba decarboxylase activity (statement in the description) [5] | Enzymatic Detection level [6] | protein kinetic activity (substrate concentration versus reaction velocity) over SEQ ID NO:109 [7] | Percent Activity Improvement Over Parent (%) ([5]; parent (SEQ ID NO: 1 or SEQ ID NO: 41) = 100) | Dicamba Decarboxylase Activity ([6]; IPTG-induced recombinant E. coli cells, 14CO2 from [14C]-carboxyl-labeled dicamba) | decarboxylation activity of dicamba ([6]; among the 108 sequences tested, recombinant E. coli cell assay)
118 (protein, Dicamba decarboxylase variant clone DC.5.033) MAKKPRIDMHSHFFPRISEQEAAKFDANHAPWLQVSAKGDTGSIMMGKNNFQPVYQALWDPAFRIEEMDAQGVDVQVTCATPVMFGYTWEANKAAQWAERMNDFALEFAAHNPQRIKVLAQVPLQDLDLACKEASRAVAAGHLGIQIGNHLGDKDLDDATLEAFLTHCANEDIPILVHGTDMMGGQRMKKWGLPWLVALAAEVQLAILSLILSGAFERIPKSLKICFSHGGGSFAFLLGLVDEAWRHVDIVREDCPRPPSEYVDRFFVDSVGNPGALELLVSVMGEDRVMLGSDYPHTTGEQKIGGLVLSSNLGESAKDKIISGNASKFFNINV | not detected | detected | not detected | not detected | have dicamba decarboxylase activity | High | – | – | – | –
119 (protein, Dicamba decarboxylase variant cloneDC.5.034) MAKKPRIDMHSHFFPRISEQEAAKFDANHAPWLQVSAKGDTGSIMMGKNNFQPVYQALWDPAFRIEEMDAQGVDVQVTCATPVMFGYTWEANKAAQWAERMNDFALEFAAHNPQRIKVLAQVPLQDLDLACKEASRAVAAGHLGIQIGNHLGDKDLDDATLEAFLTHCANEDIPILVHGWDMMGGQRMKKWGLYWLVAHHAEVQLAILSLILSGAFERIPKSLKICFSHGGGSFAFTLGWVDEAWRHVDIVREDCPRPPSEYVDRFFVDSVGNPGALELLVSVMGEDRVMLGSDYPLTTGEQKIGGLVLSSNLGESAKDKIISGNASKFFNINV | not detected | detected | not detected | not detected | have dicamba decarboxylase activity | High | – | – | – | –
120 (protein, Dicamba decarboxylase variant clone DC.12.002) MAIIDCHGHYTTTPKGVETYRNAQKAAVAKDPSFKYEKGQVVVSDDEIRESIENNQLKMQRERGTDLTIFSPRSTAGGHHIGNEYTSQFWTEHQNDLIRRVCDLFPKNFAPVAQLPQSPGVDPAKSVPEIVRTVEQMGFIGINLNPDPSGGYWKDTSLADRAFYPIYEKMVEYDIPAMIHPRNACNDCFHTTGSHALGADTTGFQQLIMSDVFKDFPSLKIIIPHGGGAVPYHWGRFRGLMQDQGYAPLEESALKNIYFDTCVYHQRGIDLLLDIVPTQNILFASEMIGAVRGIDAETGHNFDDTKRYIDNNTALNAEEKAMIFEGNARRVFSRLKTD | not detected | detected | not detected | not detected | have dicamba decarboxylase activity | High | – | – | – | –
122 (protein, Dicamba decarboxylase variant clone DC.12.103) MAIIDCHGHYTTTPKGVEDYRNAQKAAVAKDPSFKGEKGQVVVSDDEIRESIENNQLKMQRERGTDLTIFSPRSTAGGHHIGNEYTSQFWTEHQNDLIRRVCDLFPKNFAPVAQLPQSPGVDPAKSVPEIVRTVEQMGFIGINLNPDPSGGYWKDTSLADRAFYPIYEKMVEYDIPAMIHPRNACNDCFHTTGSHALGADTTGFQQLIMSDVFKDFPSLKIIIPHGGGAVPYHWGRFRGLMQDQGYAPLEESALKNIYFDTCVYHQRGIDLLLDIVPTQNILFASDMIGAVRGIDPETGHNFDDTKRYIDNNTALNAEEKAMIFEGNARRVFSRLKTD | not detected | detected | not detected | not detected | have dicamba decarboxylase activity | High | – | – | – | –
123 (protein, Dicamba decarboxylase variant clone S03902153) MAQGKVALEEHFAIPETLQDSAGFVPGDYWKELQHRLLDIQDTRLKLMDAHGIETMILSLAAPAVQAIPDRRKAIEIARRANDVLAEECAKRPDRFLAFAALPLQDPDAATEELQRCVNDLGFVGALVNGFSQEGDGQTPLYYDLPQYRPFWGEVEKLDVPFYLHPRNPLPQDSRIYDGHPWLLGPTWAFAQETAVHALRLMASGLFDEHPRLNIILGHMGEGLPYMMWRIDHRVAWVKLPPRYPAKRRFMDYFNENFHITTSGNFRTQTLIDAILEIGADRILFSTDWPFENIDHASDWFNATSIAEADRVKIGRTNARRLFKLDGA | – | – | – | – | – | High | improvement | – | – | –
1 (protein, listed as Rhizobium sp.) MAQGKVALEEHFAIPETLQDSAGFVPGDYWKELQHRLLDIQDTRLKLMDAHGIETMILSLNAPAVQAIPDRRKAIEIARRANDVLAEECAKRPDRFLAFAALPLQDPDAATEELQRCVNDLGFVGALVNGFSQEGDGQTPLYYDLPQYRPFWGEVEKLDVPFYLHPRNPLPQDSRIYDGHPWLLGPTWAFAQETAVHALRLMASGLFDEHPRLNIILGHMGEGLPYMMWRIDHRNAWVKLPPRYPAKRRFMDYFNENFHITTSGNFRTQTLIDAILEIGADRILFSTDWPFENIDHASDWFNATSIAEADRVKIGRTNARRLFKLDGA | detected | detected | detected | detected | native dicamba decarboxylase activity | High | – | 100% | High | showed decarboxylation activity of dicamba
121 (protein, Dicamba decarboxylase variant clone DC.12.014) MAIIDCHGHYTTTPKGVEDYRNAQKAAVAKDPSFKGEKGQVVVSDDEIRESIENNQLKMQRERGTDLTIFSPRWDAGGHHIGNEYTSQFWTEHQNDLIRRVCDLFPKNFAPVAQLPQSPGVDPAKSVPEIVRTVEQMGFIGINLNPDPSGGYWKDTSLADRAFYPIYEKMVEYDIPAMIHPRLACNACFHTGLSVGLGADTTGFQQLIMSDVFKDFPSLKIIIPHGGGAVPYHWGRFRGLMQDQGYAPLEESALKNIYFDTCVYHQRGIDLLLDIVPTQNILFASEMIGAVRGIDPETGHNFDDTKRYIDNNTALNAEEKAMIFEGNARRVFSRLKTD | not detected | detected | not detected | not detected | have dicamba decarboxylase activity | High | – | – | – | –
117 (protein, Dicamba decarboxylase variant clone DC.5.008) MAKKPRIDMHSHFFPRISEQEAAKFDANHAPWLQVSAKGDTGSIMMGKNNFRPVYQALWDPAFRIEEMDAQGVDVQVTCATPVMFGYTWEANKAAQWAERMNDFALEFAAHNPQRIKVLAQVPLQDLDLACKEASRAVAAGHLGIQIGNHLGDKDLDDATLEAFLTHCANEDIPILVHPWDMMGGQRMKKWMLPVLVAAPAEVQLAILSLILSGAFERIPKSLKICFAGGGGSFAFLLGIVDLAWRHRDIVREDCPRPPSEYVDRFFVDSLVFNPGALELLVSVMGEDRVMLGSDYPFPTGEQKIGGLVLSSNLGESAKDKIISGNASKFFNINV | not detected | detected | not detected | not detected | have dicamba decarboxylase activity | High | – | – | – | –

Reference: US20140289906A1, “Compositions Having Dicamba Decarboxylase Activity and Methods of Use” (priority 2013, published 2014)
